Measurements from US20110158939A1 (published 2011).
Positions count from the first letter of the chain named. In names and notes the source's numbering stands.

Columns and labels:
[1] = biological target: T1, wild type human Interleukin-4 (human, UniProt P05112 25-153); experiment: cell-based or functional assay
T1 sequence (looked up): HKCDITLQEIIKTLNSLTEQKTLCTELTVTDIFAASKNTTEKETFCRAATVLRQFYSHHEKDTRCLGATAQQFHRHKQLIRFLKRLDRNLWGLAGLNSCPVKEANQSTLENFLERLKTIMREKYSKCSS

IL-4 receptor α chain [2] = biological target: T2, IL-4 receptor α chain (UniProt P24394 26-232, limits assumed); experiment: Biacore, pre- and post-nebulized samples (Aeroneb Pro), no difference between them
T2 construct: also called IL-4Rα; IL-4-receptor alpha chain
T2 sequence (looked up): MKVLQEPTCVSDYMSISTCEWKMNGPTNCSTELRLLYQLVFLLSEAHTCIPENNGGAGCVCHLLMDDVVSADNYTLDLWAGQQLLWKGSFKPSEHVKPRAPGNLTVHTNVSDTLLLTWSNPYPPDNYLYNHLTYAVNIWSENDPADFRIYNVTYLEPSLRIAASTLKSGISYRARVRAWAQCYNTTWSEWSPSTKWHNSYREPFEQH

IL-4 receptor α chain [3] = biological target: T2, IL-4 receptor α chain; experiment: Biacore, IL-4 receptor α chain immobilized
IL-4 receptor α chain [4] = biological target: T2, IL-4 receptor α chain; experiment: Biacore, IL-4 receptor α chain immobilized (n = 7)

TF-1/IL-4 proliferation assay, EC50 of inhibition of IL-4-induced cell proliferation [1]: 0.2 to 0.3 nM | TF-1/IL-4 proliferation assay, IC50, post nebulization (Pari LC Plus) [1]: 0.483 nM | TF-1/IL-4 proliferation assay, IC50, pre nebulization (Pari LC Plus) [1]: 0.459 nM | Kd (IL-4 receptor α chain [2]): ~0.1 nM | koff (IL-4 receptor α chain [3]): 0.0017 s⁻¹ | kon (IL-4 receptor α chain [3]): 1.6e+07 M⁻¹ s⁻¹ | Kd (IL-4 receptor α chain [4]): 0.14 nM
B1: IL-4RA (mutant human IL-4 protein with the R121D/Y124D pair of substitutions) (ligand, UniProt P05112 25-153, looked up)
chain: T1 sequence (looked up) with R121D, Y124D
notes: mature; Substitution positions count on the mature 129-residue protein, not on the precursor; also called mhIL-4; IL-4 mutein
